Experimental data as given in patent US20180311311A1 (Pieris, published 2018).

Key:
[1] = target: T1, Hepcidin-25 containing a C-terminal biotin group (human, C-terminal biotin group); assay: solution competition ECL assay: 25 pM Hepcidin-25-C-bio pre-incubated with the conjugate, remaining free Hepcidin-25-C-bio captured on plate-coated antibody 12B9; STDV 14 pM, mean of n=5
T1 construct: also called Hepcidin-25-C-bio; biotinylated hepcidin
T1 peptide: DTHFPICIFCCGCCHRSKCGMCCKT
Method: (§1) The binding affinity of the hNGAL mutein having the sequence of SEQ ID NO: 2 was compared to the binding affinity of the hNGAL mutein having the sequence of SEQ ID NO: 1 linked to PEG12, PEG20, PEG30 or PEG40 in a solution competition electrochemiluminescence (ECL) assay. A defined molar concentration of Hepcidin-25 containing a C-terminal biotin group (25 pM, Hepcidin-25-C-bio) was incubated with different concentrations of the lipocalin muteins for 30 min. at room temperature. The solution was then transferred to an ECL plate coated with the human hepcidin specific monoclonal antibody 12B9 as described herein (and disclosed in WO2008/097461) to measure the remaining concentration of free Hepcidin-25-C-bio in the solution. 12B9-bound Hepcidin-25-C-bio was detected via the Streptavidin sulfotag detection reagent on the Meso-Scale ECL platform and the concentration determined via a Hepcidin-25-C-bio standard curve. […] The assay, for example, was able to distinguish the binding affinity of one lipocalin mutein (SEQ ID NO: 2) from the binding affinity of another lipocalin mutein (SEQ ID NO: 3). Furthermore, it allowed a direct comparison of different high affinities of the lipocalin muteins as well as conjugates having PEG chains of different length.

[2] = target: T1, Hepcidin-25 containing a C-terminal …; assay: solution competition ECL assay: 25 pM Hepcidin-25-C-bio pre-incubated with the mutein, remaining free Hepcidin-25-C-bio captured on plate-coated antibody 12B9; STDV 23 pM, mean of n=6
Method: as §1

Hepcidin-25 [3] = target: T2, Hepcidin-25 (human); assay: surface plasmon resonance (Biacore T200, 25 °C), mutein amine-coupled to a CM5 chip, Hepcidin-25 as analyte, 1:1 binding model; N=6
T2 construct: also called Hepc25; mature form of human hepcidin
T2 peptide: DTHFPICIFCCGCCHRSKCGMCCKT

Cynomolgus hepcidin 25 [4] = target: T3, Cynomolgus hepcidin 25 (Cynomolgus monkey, UniProt A7XEI3 60-84, not fully specified); assay: surface plasmon resonance (Biacore), cynomolgus hepcidin 25 as analyte, tested side by side with Hepcidin-25 in the same assay format; N=3
T3 construct: mature; also called Cynomolgous hepcidin 25
T3 peptide: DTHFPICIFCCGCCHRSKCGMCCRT

Hepcidin-25 [5] = target: T2, Hepcidin-25; assay: surface plasmon resonance (Biacore), Hepcidin-25 as analyte, tested side by side with cynomolgus hepcidin 25 in the same assay format; N=3
[6] = target: T4, VEGF8-109 (Pieris, truncated VEGF) (UniProt P15692 214-315); assay: SPR (Biacore T200), mutein immobilized on CM5 chip, analyte in solution
T4 construct: range 8-109; By custom it is counted on mature VEGF-A, not on the precursor
T4 sequence (looked up): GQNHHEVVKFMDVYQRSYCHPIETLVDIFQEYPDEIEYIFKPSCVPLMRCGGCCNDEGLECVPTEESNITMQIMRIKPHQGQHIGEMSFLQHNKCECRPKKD
Method: (§2) The affinity and binding specificity of a lipocalin mutein was determined in a kinetic assay using surface plasmon resonance. The hepcidin-specific lipocalin mutein having the sequence of SEQ ID NO: 1 and the hNGAL lipocalin having the sequence of SEQ ID NO: 4 were immobilized to a level of 750-1100 resonance units (RU) on a CM5 sensor chip (GE Healthcare, BR-1005-30) using an amine coupling kit (GE Healthcare, BR-1000-50). Residual activated groups were saturated with ethanolamine. The reference channels were treated with EDC/NHS following ethanolamine (blank immobilization). Dilutions of Hepcidin-25 (Peptallova), Fe-enterobactin (Genaxxon Bioscience, S4035.0001), ß-defensin (Sigma Aldrich, D9565), VEGF₈₋₁₀₉ (Pieris, truncated VEGF) and HSA (Sigma Life sciences, A1653) in HBS-EP+ buffer (GE Healthcare, BR-1006-69) were applied to the prepared chip surfaces. The following parameters were used for the binding assay: contact time 60 s, dissociation time 600 s, flow rate 30 μL/min. All measurements were performed on a Biacore T200 instrument (GE Healthcare) at 25° C. […] Prior to the protein measurements three startup cycles were performed for conditioning purposes. Data were evaluated with Biacore T200 Evaluation software (V 1.0). Double referencing was used. The 1:1 Binding model was used to fit the raw data. No binding to the reference channel was detected for all of the targets. […] The bacterial siderophor Fe-enterobactin was selected for this analysis as it constitutes one of the natural ligands of the lipocalin that the lipocalin mutein was derived from.

[7] = target: T5, HSA (Sigma Life sciences, A1653) (human, UniProt P02768 25-609); assay: as above
T5 construct: Printed only as the abbreviation HSA
Method: as §2

[8] = target: T6, ß-defensin (Sigma Aldrich, D9565) (UniProt P60022 33-68); assay: as above
T6 construct: also called mammalian antimicrobial 36 amino acid peptide ß-defensin
T6 peptide (looked up): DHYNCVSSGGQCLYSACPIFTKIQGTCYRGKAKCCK
Method: as §2

[9] = target: T1, Hepcidin-25 containing a C-terminal …; assay: solution competition ECL assay: 25 pM Hepcidin-25-C-bio pre-incubated with the conjugate, remaining free Hepcidin-25-C-bio captured on plate-coated antibody 12B9; STDV 11 pM, mean of n=5
Method: as §1

[10] = target: T1, Hepcidin-25 containing a C-terminal …; assay: solution competition ECL assay: 25 pM Hepcidin-25-C-bio pre-incubated with the conjugate, remaining free Hepcidin-25-C-bio captured on plate-coated antibody 12B9; STDV 6 pM, mean of n=6
Method: as §1

Cynomolgus hepcidin 25 [11] = target: T3, Cynomolgus hepcidin 25; assay: surface plasmon resonance
[12] = target: T1, Hepcidin-25 containing a C-terminal …; assay: solution competition ECL assay: 25 pM Hepcidin-25-C-bio pre-incubated with the conjugate, remaining free Hepcidin-25-C-bio captured on plate-coated antibody 12B9; STDV 10 pM, mean of n=5
Method: as §1

[13] = target: T4, VEGF8-109 (Pieris, truncated VEGF); assay: SPR (Biacore T200), hNGAL immobilized on CM5 chip, analyte in solution
Method: (§3) The reference channels were treated with EDC/NHS following ethanolamine (blank immobilization). Dilutions of Hepcidin-25 (Peptallova), Fe-enterobactin (Genaxxon Bioscience, S4035.0001), ß-defensin (Sigma Aldrich, D9565), VEGF₈₋₁₀₉ (Pieris, truncated VEGF) and HSA (Sigma Life sciences, A1653) in HBS-EP+ buffer (GE Healthcare, BR-1006-69) were applied to the prepared chip surfaces. The following parameters were used for the binding assay: contact time 60 s, dissociation time 600 s, flow rate 30 μL/min. All measurements were performed on a Biacore T200 instrument (GE Healthcare) at 25° C. […] Prior to the protein measurements three startup cycles were performed for conditioning purposes. Data were evaluated with Biacore T200 Evaluation software (V 1.0). Double referencing was used. The 1:1 Binding model was used to fit the raw data. No binding to the reference channel was detected for all of the targets. […] The bacterial siderophor Fe-enterobactin was selected for this analysis as it constitutes one of the natural ligands of the lipocalin that the lipocalin mutein was derived from. […] HSA and VEGF were used as example of non-related proteins. The hNGAL lipocalin, immobilized in an identical fashion on a CM5 chip compared to the lipocalin mutein was used as positive control for the Fe-enterobactin analyte. As described in the literature, the hNGAL lipocalin bound Fe-enterobactin with subnanomolar affinity, whereas none of the other analytes including hepcidin were bound.

Hepcidin-25 [14] = target: T2, Hepcidin-25; assay: as above
Method: as §3

[15] = target: T5, HSA (Sigma Life sciences, A1653); assay: as above
Method: as §3

[16] = target: T6, ß-defensin (Sigma Aldrich, D9565); assay: as above
Method: as §3

T5 sequence (P02768 25-609): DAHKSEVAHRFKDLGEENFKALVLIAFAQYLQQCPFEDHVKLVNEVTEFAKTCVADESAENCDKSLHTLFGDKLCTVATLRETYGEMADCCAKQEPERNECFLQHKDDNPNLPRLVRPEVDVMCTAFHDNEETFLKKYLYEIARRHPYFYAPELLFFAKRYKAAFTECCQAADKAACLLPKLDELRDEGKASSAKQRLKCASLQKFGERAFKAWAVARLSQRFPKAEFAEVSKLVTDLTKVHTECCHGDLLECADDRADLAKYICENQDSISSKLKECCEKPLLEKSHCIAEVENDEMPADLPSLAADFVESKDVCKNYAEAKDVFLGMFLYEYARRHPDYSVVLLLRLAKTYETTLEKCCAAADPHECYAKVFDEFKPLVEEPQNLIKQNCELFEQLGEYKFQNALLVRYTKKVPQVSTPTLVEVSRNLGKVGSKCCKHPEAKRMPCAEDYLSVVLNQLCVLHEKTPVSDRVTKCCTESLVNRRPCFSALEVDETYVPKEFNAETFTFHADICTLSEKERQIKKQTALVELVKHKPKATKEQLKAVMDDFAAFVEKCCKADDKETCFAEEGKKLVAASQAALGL

B1: hNGAL mutein having the sequence of SEQ ID NO: 1 linked to PEG12 (designed binder)
chain: QDSTSDLIPAPPLSKVPLQQNFQDNQFHGKWYVVGLAGNEVLREDKDPMKMWATIYELKEDKSYNVTIVMPLAEKCEYLFQTFVPGCQPGEFTLGGIKSGPGRTSGLVRVVSTNYNQHAMVFFKVVWQNREVFWVTLYGRTKELTSELKENFIRFSKSLGLPENHIVFPVPIDQCIDG
modifications: linear PEG12 (PEG-maleimide) on the free Cys at position 87
notes: also called PEG12 conjugate
B1 gave an IC50 [1] of 48 pM.

B2: hNGAL mutein having the sequence of SEQ ID NO: 2 (designed binder)
chain: QDSTSDLIPAPPLSKVPLQQNFQDNQFHGKWYVVGLAGNEVLREDKDPMKMWATIYELKEDKSYNVTIVMPLAEKCEYLFQTFVPGSQPGEFTLGGIKSGPGRTSGLVRVVSTNYNQHAMVFFKVVWQNREVFWVTLYGRTKELTSELKENFIRFSKSLGLPENHIVFPVPIDQCIDG
notes: Non-PEGylated mutein with serine at position 87
B2 was tested, and the IC50 [2] was 56 pM.

B3: hepcidin-specific lipocalin mutein (hNGAL mutein) having the sequence of SEQ ID NO: 1 (designed binder)
chain: QDSTSDLIPAPPLSKVPLQQNFQDNQFHGKWYVVGLAGNEVLREDKDPMKMWATIYELKEDKSYNVTIVMPLAEKCEYLFQTFVPGCQPGEFTLGGIKSGPGRTSGLVRVVSTNYNQHAMVFFKVVWQNREVFWVTLYGRTKELTSELKENFIRFSKSLGLPENHIVFPVPIDQCIDG
notes: also called the lipocalin mutein; hNGAL mutein having a free cysteine residue at amino acid position 87
Binder B3 has a Kd (Hepcidin-25 [3]) of 70 pM, a koff (Hepcidin-25 [3]) of 0.0002 s⁻¹ and a kon (Hepcidin-25 [3]) of 3.8e+06 M⁻¹ s⁻¹. For the same binder, the Kd (Cynomolgus hepcidin 25 [4]) was 70 pM, the Kd (Hepcidin-25 [5]) was 100 pM and the binding result [6] was “no binding”. B3: no binding [7]; no binding [8].

B4: hNGAL mutein having the sequence of SEQ ID NO: 1 linked to PEG20 (designed binder)
chain: QDSTSDLIPAPPLSKVPLQQNFQDNQFHGKWYVVGLAGNEVLREDKDPMKMWATIYELKEDKSYNVTIVMPLAEKCEYLFQTFVPGCQPGEFTLGGIKSGPGRTSGLVRVVSTNYNQHAMVFFKVVWQNREVFWVTLYGRTKELTSELKENFIRFSKSLGLPENHIVFPVPIDQCIDG
modifications: linear PEG20 (PEG-maleimide) on the free Cys at position 87
notes: also called PEG20 conjugate
B4 gave an IC50 [9] of 47 pM.

B5: hNGAL mutein having the sequence of SEQ ID NO: 1 linked to PEG30 (designed binder)
chain: QDSTSDLIPAPPLSKVPLQQNFQDNQFHGKWYVVGLAGNEVLREDKDPMKMWATIYELKEDKSYNVTIVMPLAEKCEYLFQTFVPGCQPGEFTLGGIKSGPGRTSGLVRVVSTNYNQHAMVFFKVVWQNREVFWVTLYGRTKELTSELKENFIRFSKSLGLPENHIVFPVPIDQCIDG
modifications: linear PEG30 (PEG-maleimide) on the free Cys at position 87
notes: also called PEG30 conjugate; lipocalin-mutein-PEG30 conjugate
With B5 the IC50 [10] was 58 pM and the Kd (Cynomolgus hepcidin 25 [11]) was 66 pM.

B6: hNGAL mutein having the sequence of SEQ ID NO: 1 linked to PEG40 (designed binder)
chain: QDSTSDLIPAPPLSKVPLQQNFQDNQFHGKWYVVGLAGNEVLREDKDPMKMWATIYELKEDKSYNVTIVMPLAEKCEYLFQTFVPGCQPGEFTLGGIKSGPGRTSGLVRVVSTNYNQHAMVFFKVVWQNREVFWVTLYGRTKELTSELKENFIRFSKSLGLPENHIVFPVPIDQCIDG
modifications: branched PEG40 (PEG-maleimide) on the free Cys at position 87
notes: also called PEG40 conjugate
With B6 the IC50 [12] was 54 pM, the Kd (Cynomolgus hepcidin 25 [11]) was 66 pM and the koff (Cynomolgus hepcidin 25 [11]) was 0.000245 s⁻¹. For the same binder, the kon (Cynomolgus hepcidin 25 [11]) was 3.74e+06 M⁻¹ s⁻¹.

B7: hNGAL lipocalin having the sequence of SEQ ID NO: 4 (other)
chain: QDSTSDLIPAPPLSKVPLQQNFQDNQFHGKWYVVGLAGNAILREDKDPQKMYATIYELKEDKSYNVTSVLFRKKKCDYWIRTFVPGSQPGEFTLGNIKSYPGLTSYLVRVVSTNYNQHAMVFFKKVSQNREYFKITLYGRTKELTSELKENFIRFSKSLGLPENHIVFPVPIDQCIDG
notes: also called human neutrophil gelatinase-associated lipocalin; lipocalin 2
B7: no binding [13]; no binding (Hepcidin-25 [14]); no binding [15]. B7: no binding [16].
